Assay results taken from IntAct's records for PubMed 14673118.

B1: Thioredoxin (Synechocystis sp. (strain PCC 6803 / Kazusa)), P52231 (parent)
chain: MSATPQVSDASFKEDVLDSELPVLVDFWAPWCGPCRMVAPVVDEISQQYEGKVKVVKLNTDENPNTASQYGIRSIPTLMIFKGGQRVDMVVGAVPKTTLASTLEKYL
partner: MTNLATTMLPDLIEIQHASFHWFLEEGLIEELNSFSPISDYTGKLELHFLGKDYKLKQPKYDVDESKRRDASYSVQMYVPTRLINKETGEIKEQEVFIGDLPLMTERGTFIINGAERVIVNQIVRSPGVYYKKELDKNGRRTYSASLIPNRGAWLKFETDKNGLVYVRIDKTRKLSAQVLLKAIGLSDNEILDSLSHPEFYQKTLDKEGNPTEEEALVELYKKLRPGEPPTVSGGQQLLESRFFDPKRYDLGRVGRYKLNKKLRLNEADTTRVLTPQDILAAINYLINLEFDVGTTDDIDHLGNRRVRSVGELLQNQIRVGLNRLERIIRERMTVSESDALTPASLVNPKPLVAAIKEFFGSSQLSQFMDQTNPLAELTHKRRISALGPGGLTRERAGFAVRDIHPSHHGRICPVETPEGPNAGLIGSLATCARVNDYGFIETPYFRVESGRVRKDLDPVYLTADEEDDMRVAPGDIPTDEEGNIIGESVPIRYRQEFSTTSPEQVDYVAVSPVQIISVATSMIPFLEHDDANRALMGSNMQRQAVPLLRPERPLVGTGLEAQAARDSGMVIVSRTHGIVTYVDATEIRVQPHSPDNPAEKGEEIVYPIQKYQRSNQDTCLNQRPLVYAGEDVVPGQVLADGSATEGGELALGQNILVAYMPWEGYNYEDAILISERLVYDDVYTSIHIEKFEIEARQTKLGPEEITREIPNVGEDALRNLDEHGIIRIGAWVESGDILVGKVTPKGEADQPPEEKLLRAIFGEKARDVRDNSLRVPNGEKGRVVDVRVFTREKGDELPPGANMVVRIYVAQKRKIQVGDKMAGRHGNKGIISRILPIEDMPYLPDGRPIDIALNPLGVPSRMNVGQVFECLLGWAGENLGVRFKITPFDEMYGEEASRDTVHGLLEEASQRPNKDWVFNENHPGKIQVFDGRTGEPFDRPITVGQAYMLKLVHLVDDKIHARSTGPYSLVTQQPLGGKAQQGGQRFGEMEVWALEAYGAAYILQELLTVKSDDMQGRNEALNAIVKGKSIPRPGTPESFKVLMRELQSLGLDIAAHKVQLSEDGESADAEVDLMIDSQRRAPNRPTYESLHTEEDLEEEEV
B2: Thioredoxin (Synechocystis sp. (strain PCC 6803 / Kazusa)), P52231 (parent)
chain: B1 chain
partner: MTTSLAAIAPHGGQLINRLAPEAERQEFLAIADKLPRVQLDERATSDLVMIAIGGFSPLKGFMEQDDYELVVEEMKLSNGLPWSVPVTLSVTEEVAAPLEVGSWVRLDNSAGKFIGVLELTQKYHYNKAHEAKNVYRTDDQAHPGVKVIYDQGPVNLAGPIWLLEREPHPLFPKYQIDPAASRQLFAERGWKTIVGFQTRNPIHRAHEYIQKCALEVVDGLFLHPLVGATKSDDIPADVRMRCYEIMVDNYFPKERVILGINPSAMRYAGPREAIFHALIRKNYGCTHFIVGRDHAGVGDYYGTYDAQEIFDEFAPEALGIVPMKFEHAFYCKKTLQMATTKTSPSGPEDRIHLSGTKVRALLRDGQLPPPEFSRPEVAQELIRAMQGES
B3: Thioredoxin (Synechocystis sp. (strain PCC 6803 / Kazusa)), P52231 (parent)
chain: B1 chain
partner: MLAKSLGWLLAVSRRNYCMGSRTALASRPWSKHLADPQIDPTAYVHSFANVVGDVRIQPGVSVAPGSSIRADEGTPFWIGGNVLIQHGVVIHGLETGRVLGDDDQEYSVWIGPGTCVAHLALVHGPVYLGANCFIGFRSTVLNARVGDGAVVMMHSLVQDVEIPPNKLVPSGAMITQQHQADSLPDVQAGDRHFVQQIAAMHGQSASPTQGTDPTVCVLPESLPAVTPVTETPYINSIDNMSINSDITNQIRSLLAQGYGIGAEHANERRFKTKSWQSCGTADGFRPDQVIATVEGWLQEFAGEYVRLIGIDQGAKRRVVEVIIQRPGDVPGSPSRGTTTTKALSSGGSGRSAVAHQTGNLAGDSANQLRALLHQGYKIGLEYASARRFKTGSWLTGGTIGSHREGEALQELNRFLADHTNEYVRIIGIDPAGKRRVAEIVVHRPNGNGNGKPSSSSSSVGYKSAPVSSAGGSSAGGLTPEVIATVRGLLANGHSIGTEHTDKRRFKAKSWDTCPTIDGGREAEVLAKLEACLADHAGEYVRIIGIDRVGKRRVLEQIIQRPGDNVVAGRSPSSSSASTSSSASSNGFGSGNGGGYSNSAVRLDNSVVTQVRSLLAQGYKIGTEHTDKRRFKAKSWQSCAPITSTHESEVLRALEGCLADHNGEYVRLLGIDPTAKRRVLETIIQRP
B4: Thioredoxin (Synechocystis sp. (strain PCC 6803 / Kazusa)), P52231 (parent)
chain: B1 chain
partner: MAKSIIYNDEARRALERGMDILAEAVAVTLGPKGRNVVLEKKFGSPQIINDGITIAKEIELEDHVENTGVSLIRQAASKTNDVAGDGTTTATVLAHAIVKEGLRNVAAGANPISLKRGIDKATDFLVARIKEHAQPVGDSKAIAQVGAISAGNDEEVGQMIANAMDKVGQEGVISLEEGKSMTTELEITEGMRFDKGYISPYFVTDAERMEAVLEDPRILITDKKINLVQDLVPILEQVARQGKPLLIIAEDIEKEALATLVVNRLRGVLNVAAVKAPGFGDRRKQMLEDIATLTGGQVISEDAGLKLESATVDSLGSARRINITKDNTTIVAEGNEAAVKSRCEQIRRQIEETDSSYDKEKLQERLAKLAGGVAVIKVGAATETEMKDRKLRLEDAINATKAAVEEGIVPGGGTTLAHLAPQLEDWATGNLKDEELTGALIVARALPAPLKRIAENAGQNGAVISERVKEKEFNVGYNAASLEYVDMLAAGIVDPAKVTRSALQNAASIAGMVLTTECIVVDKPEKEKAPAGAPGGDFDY
B5: Thioredoxin (Synechocystis sp. (strain PCC 6803 / Kazusa)), P52231 (parent)
chain: B1 chain
partner: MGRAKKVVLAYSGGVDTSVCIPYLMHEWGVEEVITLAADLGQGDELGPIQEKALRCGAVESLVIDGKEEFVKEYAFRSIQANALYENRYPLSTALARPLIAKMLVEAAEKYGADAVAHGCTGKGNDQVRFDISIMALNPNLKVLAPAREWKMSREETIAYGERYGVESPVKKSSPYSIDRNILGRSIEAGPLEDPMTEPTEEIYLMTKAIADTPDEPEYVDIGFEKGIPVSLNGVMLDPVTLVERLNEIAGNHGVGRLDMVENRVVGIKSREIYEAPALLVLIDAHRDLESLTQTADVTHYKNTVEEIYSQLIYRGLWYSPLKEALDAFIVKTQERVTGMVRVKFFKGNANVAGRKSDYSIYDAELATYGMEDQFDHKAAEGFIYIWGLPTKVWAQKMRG

Variants of: B1
Conditions: with rpob_syny3 rpoB
C35S was tested, and the “effect of a mutation on the interaction” value was “increasing interaction”.

Variants of: B2
Conditions: with sat_syny3 sat
In the case of C35S, the “effect of a mutation on the interaction” value is reported as “increasing interaction”.

Variants of: B3
Conditions: with ccmm_syny3 ccmM
C35S was tested, and the “effect of a mutation on the interaction” value was “increasing interaction”.

Variants of: B4
Conditions: with ch601_syny3 groEL1, Q05972
With C35S the “effect of a mutation on the interaction” value was “increasing interaction”.

Variants of: B5
Conditions: with assy_syny3 argG
With C35S the “effect of a mutation on the interaction” value was “increasing interaction”.
